Assay results taken from article PMC3307390 (Journal of Immunology (Baltimore, Md. : 1950), 2010).
Peptide text beside a SMILES is read from it.

Columns and labels:
DQA1*0501/DQB1*0201 = DQA1*0501/DQB1*0201 (Homo sapiens, UniProt P01909+P01920, A45G/A70V/D89A/E106A/E77G/E98D/H199R/L107V/N214S/P84L/P87L/T103K/T109R/T172A/T60S/V78E/V99I/Y58L/Y62S/Y69I/Y79F); assay: biochemical
DQA1*0101/DQB1*0501 = DQA1*0101/DQB1*0501 (Homo sapiens, UniProt P01909+P01920, A157S/A45G/A70V/C70R/D89V/E106S/E118A/E183D/E77G/F83G/G63E/H151Q/H199R/H252R/H253Q/I129T/I235V/I88M/INS77G/K197Q/L107V/L117V/L119Y/L178F/L71W/L74F/L85Q/L91A/L98M/M46L/N214S/P87R/Q116E/Q256R/Q57E/Q76K/R102G/R240Q/R75S/R78G/S102Y/S185I/S41F/S97I/T103A/T109R/T121G/T122I/T172A/T86R/V148I/V68A/V73E/Y34C/Y58G/Y62H); assay: biochemical; type: binding
DQA1*0102/DQB1*0602 = DQA1*0102/DQB1*0602 (Homo sapiens, UniProt P01909+P01920, A157G/A45G/C70R/E118A/E183D/E77G/F83G/G63E/H151Q/H199R/H252R/H253Q/I129T/I235V/I88M/INS77G/K197Q/L117V/L119F/L178F/L71W/L74F/L85Q/L91A/L98M/N214S/P87R/Q116E/Q76K/R102G/R240Q/R75S/R78G/S102Y/S185I/S41F/S97I/T121G/T122I/T172A/T86R/V229M/V68A/V73E/Y34C/Y41F/Y58L); assay: biochemical; type: binding
[1] = target: HLA-DQ DQA1*0501/DQB1*0201 (human (endogenous in EBV-transformed cell line VAVY)); assay: radioligand binding
[2] = target: HLA-DQ DQA1*0301/DQB1*0302 (human (endogenous in EBV-transformed cell line Preiss)); assay: radioligand binding
[3] = target: HLA-DQ DQA1*0101/DQB1*0501 (human (endogenous in EBV-transformed cell line LG2)); assay: radioligand binding

CC[C@H](C)[C@H](NC(=O)[C@H](CO)NC(=O)[C@H](CCC(=O)O)NC(=O)[C@H](C)NC(=O)[C@H](CCC(=O)O)NC(=O)[C@H](CCSC)NC(=O)[C@H](CCC(N)=O)NC(=O)[C@H](CCCCN)NC(=O)[C@@H](NC(=O)[C@H](CC(=O)O)NC(=O)[C@H](CCC(=O)O)NC(=O)[C@H](CCSC)NC(=O)[C@H](C)NC(=O)[C@H](CCC(N)=O)NC(=O)[C@H](CC(=O)O)NC(=O)[C@H](CCC(=O)O)NC(=O)[C@@H](N)[C@@H](C)O)[C@@H](C)CC)C(=O)N[C@@H](CO)C(=O)O
IC50 (DQA1*0501/DQB1*0201): 439 nM

CC(C)C[C@H](NC(=O)[C@@H](NC(=O)[C@H](Cc1c[nH]cn1)NC(=O)[C@H](CO)NC(=O)[C@H](Cc1ccccc1)NC(=O)[C@H](CO)NC(=O)CNC(=O)CNC(=O)[C@H](CC(C)C)NC(=O)[C@H](Cc1ccc(O)cc1)NC(=O)[C@H](CCCNC(=N)N)NC(=O)[C@H](Cc1ccc(O)cc1)NC(=O)[C@H](CC(C)C)NC(=O)[C@@H]1CCCN1)C(C)C)C(=O)O
IC50 (DQA1*0101/DQB1*0501): 2460 nM

CC[C@H](C)[C@H](N)C(=O)N[C@@H](CC(N)=O)C(=O)N[C@@H](CCC(=O)O)C(=O)N1CCC[C@H]1C(=O)N[C@H](C(=O)N[C@@H](C)C(=O)N[C@@H](C)C(=O)N[C@@H](C)C(=O)N[C@H](C(=O)N[C@@H](C)C(=O)N[C@@H](Cc1ccc(O)cc1)C(=O)NCC(=O)N[C@@H](CC(C)C)C(=O)N[C@@H](CC(=O)O)C(=O)N[C@@H](CCCNC(=N)N)C(=O)O)[C@@H](C)CC)[C@@H](C)O (H-INEPTAAAIAYGLDR-OH)
IC50 (DQA1*0102/DQB1*0602): 6.3 nM

KPVSKMRMATPLLMQALP [Homo sapiens Ii chain peptide …]
IC50 [1]: 30 nM

TEDQAMEDIKQMEAESIS [Bos taurus a-S1 casein peptide …]
IC50 [1]: 439 nM

DCLLCAYSIEFGTNISKEHD [Gallus gallus ovomucoid peptide …]
IC50 [2]: 146 nM

RMMEYGTTMVSYQPL
IC50 [2]: 185 nM

FDRSTKVIDFHYPNE
IC50 [2]: 3960 nM

TPTEKDEYCARVNH [H. sapiens B2-m peptide …]
IC50 [2]: 29500 nM

PLYRYLGGSFSHVL [C. trachomatis enolase peptide …]
IC50 [3]: 2460 nM
